Measurements: article PMC12440827 (Nature structural & molecular biology, 2025)

Target: FIP200 N-terminal domain (1-640), untagged, of the ULK1C core (human, UniProt Q8TDY2 1-640)
Assay: cryo-EM structure; ULK1C (2:1:1) core, SEC peak in 25 mM HEPES pH 7.5, 150 mM NaCl, 1 mM MgCl2, 1 mM TCEP; graphene grids, 300 kV Titan Krios
Details: both partners purified

Sequence of FIP200 N-terminal domain (1-640), untagged, of the ULK1C core (Q8TDY2 1-640): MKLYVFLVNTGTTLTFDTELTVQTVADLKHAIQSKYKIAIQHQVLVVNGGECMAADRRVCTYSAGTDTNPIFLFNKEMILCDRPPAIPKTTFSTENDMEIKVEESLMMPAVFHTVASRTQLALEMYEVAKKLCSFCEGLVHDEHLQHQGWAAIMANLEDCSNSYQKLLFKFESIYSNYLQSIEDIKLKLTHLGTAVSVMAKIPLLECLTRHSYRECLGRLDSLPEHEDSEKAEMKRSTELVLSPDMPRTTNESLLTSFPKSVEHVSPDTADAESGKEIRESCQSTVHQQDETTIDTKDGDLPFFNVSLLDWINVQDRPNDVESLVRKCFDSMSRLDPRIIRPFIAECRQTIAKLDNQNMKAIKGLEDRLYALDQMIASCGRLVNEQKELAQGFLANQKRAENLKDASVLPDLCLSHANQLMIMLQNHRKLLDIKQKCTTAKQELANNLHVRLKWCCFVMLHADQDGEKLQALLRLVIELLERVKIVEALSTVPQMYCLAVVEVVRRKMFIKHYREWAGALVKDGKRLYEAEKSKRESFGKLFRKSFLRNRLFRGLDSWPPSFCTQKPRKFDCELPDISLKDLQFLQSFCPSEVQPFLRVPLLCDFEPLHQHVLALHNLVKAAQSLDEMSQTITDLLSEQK

B1: ATG13 (363-517), the ATG13 part of the ATG13-ULK1 fusion chain (domain or fragment, human, UniProt O75143 363-517, looked up)
chain: HDVLETIFVRKVGAFVNKPINQVTLTSLDIPFAMFAPKNLELEDTDPMVNPPDSPETESPLQGSLHSDGSSGGSSGNTHDDFVMIDFKPAFSKDDILPMDLGTFYREFQNPPQLSSLSIDIGAQSMAEDLDSLPEKLAVHEKNVREFDAFVETLQ
binding result: binds
